The experiment concerns the target hFcRn/β2-microglobulin complex (human) (UniProt P55899). Kind of experiment: BLI, His-tagged hFcRn/b2m on Ni-NTA, pH 5.6.

hFcRn/β2-microglobulin complex (human), sequence (P55899 24-297 limits assumed, chain 1 of 2): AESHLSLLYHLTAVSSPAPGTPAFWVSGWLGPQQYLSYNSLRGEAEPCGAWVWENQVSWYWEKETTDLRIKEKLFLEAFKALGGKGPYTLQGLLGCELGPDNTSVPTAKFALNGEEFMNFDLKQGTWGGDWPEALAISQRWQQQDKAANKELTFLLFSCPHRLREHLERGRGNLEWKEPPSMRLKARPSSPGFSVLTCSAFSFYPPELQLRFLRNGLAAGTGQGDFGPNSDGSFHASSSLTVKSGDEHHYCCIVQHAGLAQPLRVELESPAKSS
hFcRn/β2-microglobulin complex (human), sequence (P61769 21-119 limits assumed, chain 2 of 2, further chain): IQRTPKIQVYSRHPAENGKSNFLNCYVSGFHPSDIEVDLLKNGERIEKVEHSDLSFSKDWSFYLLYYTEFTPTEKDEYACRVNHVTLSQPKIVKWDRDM

T-01 MB IgG1 I253V: the fold higher affinity than the IgG1 control was above 1000 fold.

The values above are taken from patent US20250276070A1.
